Positions count from the first letter of the chain named. One block for each molecule: values may come before it.
Assays:
[1] = target: human EGFR (epidermal growth factor receptor) (human) (UniProt P00533); test: flow cytometry, binding curve of the biotinylated ligand on MDA-MB468 cells
[2] = target: T1, human EGFR (epidermal growth factor receptor) (human, UniProt P00533 25-1210); test: cell-based or functional assay
[3] = target: T1, human EGFR (epidermal growth factor …); test: flow cytometry on MDA-MB468 or A431 cells; EC50 of the curve taken as apparent Kd
[4] = target: T1, human EGFR (epidermal growth factor …); test: flow cytometry on MDA-MB468 cells, apparent Kd from non-linear regression of geo mean fluorescence against [Ab] (M)
[5] = target: T1, human EGFR (epidermal growth factor …); test: flow cytometry on MDA-MB468 cells

Molecule: biotinylated EGF (Invitrogen) (ligand)
- EC50 [1]: 1.8 nM

B1: chimeric ML66-SMCC-DM1 (antibody, V domains shown)
VH: QVQLKESGPGLVQPSQTLSLTCTVSGLSLASNSVSWIRQPPGKGLEWMGVIWNHGGTDYNSVIKSRLSISRDTSKSQVFLKMNSLQTEDTAMYFCVRKGGIYFDYWGQGVMVTVSS
VL: DTVLTQSPALAVSPGERVTISCRASESVSTLMHWYQQKSGQQPKLLIYLASHRESGVPARFSGSGSGTDFTLTIDPMEADDTATYYCQQSRNDPWTFGGGTNLELK
modifications: Maytansinoid DM1 is linked to the antibody through the non-cleavable SMCC linker. The attachment sites and drug load for chML66 are not stated, and the letters cannot carry them.
- EC50 of cytotoxicity on KB cells with 1 µM naked chML66 antibody blocking [2]: 30 nM
- EC50 of cytotoxicity on KB cells without blocking antibody [2]: 3 nM

B2: huML66-SPDB-DM4 conjugate (antibody, human IgG1, kappa, V domains shown)
VH: B1 VH with K5Q, Q13K, Q16E, S61P, V62S, Q86T, T87A, E88A, M111L
VL: DTVLTQSPSLAVSPGERATISCRASESVSTLMHWYQQKPGQQPKLLIYLASHRESGVPARFSGSGSGTDFTLTIDPMEAEDTATYYCQQSRNDPWTFGQGTKLELKR
modifications: DM4 linked through SPDB; sites not stated; DM4 linked through SPDB; 3.5-4 DM4 molecules per antibody; sites not stated
- Kd [3]: 2.93 nM

B3: huML66-SMCC-DM1 conjugate (antibody, human IgG1, kappa, V domains shown)
VH: B1 VH with K5Q, Q13K, Q16E, S61P, V62S, Q86T, T87A, E88A, M111L
VL: B2 VL
modifications: DM1 linked through SMCC; sites not stated; DM1 linked through SMCC; 3.5-4 DM1 molecules per antibody; sites not stated
- Kd [3]: 2.33 nM

B5: humanized ML66 (huML66) antibody (antibody, human IgG1, kappa, V domains shown)
VH: B1 VH with K5Q, Q13K, Q16E, S61P, V62S, Q86T, T87A, E88A, M111L
VL: B2 VL
- Kd [4]: 1.23 nM
- Kd [3]: 1.12 nM
- EC50 (read off the curve) [5]: ~1 nM

Second part, led by results:

- Kd [4]: 1.94 nM
- EC50 (read off the curve) [5]: ~2 nM
B4: rat ML66 antibody (antibody, V domains shown)
VH: B1 VH
VL: B2 VL with S9A, A18V, P39S, E80D, Q99G, K102N
notes: Rat monoclonal antibody purified from hybridoma

- Kd [3]: 4.54 nM
B6: muEGFR-8-SMCC-DM1 conjugate (antibody, V domains shown)
VH: EVQLQQSGAELVKPGASVKLSCTTSGFNIKDTYIHWVKKRPEQGLEWIGRIDPTNGNNKYDPKFQGKATITADTSSNTAYLQLSSLTSEDTAVYYCTREDGYRYDDWYFDVWGAGTTVTVSS
VL: QIVLTQSPASMSASPGEKVTMTCSASSSVSYMHWYQQKSGTSPKRWIYATSKLASGVPARFSGSGSGTSYSLTISSMEAEDAATYYCQQWSSNPLTFGAGTKLELKR
modifications: DM1 linked through SMCC to the antibody; drug load and sites not stated
notes: Maytansinoid conjugate of the whole murine EGFR-8 antibody; its preparation is not described separately
- EC50 of in vitro cytotoxicity on NCI-H226 cells (WST-8) [2]: 0.68 nM
- EC50 of in vitro cytotoxicity on NCI-H292 cells (WST-8) [2]: 0.43 nM
- EC50 of in vitro cytotoxicity on NCI-H322M cells (WST-8) [2]: 3.07 nM

- Kd [3]: 1.43 nM
B7: murine EGFR-8 antibody (antibody, V domains shown)
VH: B6 VH
VL: B6 VL
notes: Mouse monoclonal antibody purified from hybridoma; also called muEGFR-8

Reference: patent US20160017053A1 (IMMUNOGEN, published 2016)
